# Assay results: PMC12102759
# B1: ICA1L peptide 451-466 (Islet cell autoantigen 1-like protein), 16-mer library wild type / NSP16 (ORF1ab Nsp16, residues 6799-7088) (parent)
# chain 1: QDMSAWFNLFADLDPL
# chain 2: SSQAWQPGVAMPNLYKMQRMLLEKCDLQNYGDSATLPKGIMMNVAKYTQLCQYLNTLTLAVPYNMRVIHFGAGSDKGVAPGTAVLRQWLPTGTLLVDSDLNDFVSDADSTLIGDCATVHTANKWDLIISDMYDPKTKNVTKENDSKEGFFTYICGFIQQKLALGGSVAIKITEHSWNADLYKLMGHFAWWTAFVTNVNASSSEAFLIGCNYLGKPREQIDGYVMHANYIFWRNTNPIQLSSYSLFDMSKFPLKLRGTAVMSLKEGQINDMILSLLSKGRLIIRENNRVVI
# B2: MBOAT1 peptide 17-32 (Lysophospholipid acyltransferase 1), 16-mer library wild type / NSP3 ADRP (ORF1ab Nsp3b ADRP, residues 1023-1192) (parent)
# chain 1: STYLHPLSELLGIPLD
# chain 2: not shown
# Variants of: B1
# Conditions: with NSP16 (ORF1ab Nsp16, residues 6799-7088); bait immobilised on MaxiSorp plates (10 µg), library pre-cleared on GST, 2 h binding at 4 °C, five washes; one round per day, days 1-4; value from days 2 and 3; keep out of graded; scale: average fractional NGS count over selection days 2 and 3
row,Variant,screen value
1,chain 1 QDMSAWFNLFADLHPL,0
2,chain 1 QDMSAWFNLFADLAPL,3.47e-05
3,chain 1 QDMSAWFNLFADLFPL,1.57e-05
4,chain 1 QDMSAWFNLFADLGPL,1.57e-05
5,chain 1 QDMSAWFNLFADLRPL,8.06e-05
6,chain 1 QDMSAWFNLFADLLPL,6.11e-05
7,chain 1 QDMSAWFNLFADLNPL,6.07e-05
8,chain 1 QDMSAWFNLFADLSPL,6.51e-05
9,chain 1 QDMSAWFDLFADLDPL,6.98e-05
10,chain 1 QDMSAWFSLFADLDPL,2.43e-05
11,chain 1 QDMSAWFQLFADLDPL,5.42e-05
12,chain 1 QDMSAWSNLFADLDPL,3.52e-05
13,chain 1 QDMSAWRNLFADLDPL,0
14,chain 1 QDMSAWMNLFADLDPL,7.76e-05
15,chain 1 QDMSAWVNLFADLDPL,5.76e-05
16,chain 1 QDMSAWFNIFADLDPL,3.31e-05
17,chain 1 QDMSAWFNTFADLDPL,3.99e-05
18,chain 1 QDMSAWFNWFADLDPL,7.05e-05
19,chain 1 QDMSAWFNAFADLDPL,0
20,chain 1 QEMSAWFNLFADLDPL,0
21,chain 1 QDMSAWFNLFADLDLL,3.43e-05
22,chain 1 QDMSAWFNLFADLDAL,1.57e-05
23,chain 1 QDMSAWFNLFADLDEL,0
24,chain 1 QDMSAWFNLFADLDFL,0
25,chain 1 QDMSAWFNLFADLDYL,5.19e-05
26,chain 1 QDMSAWFNLFADLDWL,2.45e-05

row,Variant,screen value
1,chain 1 QDMSAWFNLFANLDPL,1.88e-05
2,chain 1 QDMSAWFNLFAPLDPL,3.33e-05
3,chain 1 QDMSAWFNLFAQLDPL,5.82e-05
4,chain 1 QDMSAWFNLFAGLDPL,3.31e-05
5,chain 1 QDMVAWFNLFADLDPL,0
6,chain 1 QDMMAWFNLFADLDPL,6.83e-05
7,chain 1 QDMAAWFNLFADLDPL,0
8,chain 1 QDMDAWFNLFADLDPL,6.54e-05
9,chain 1 QDMSAWFNLFSDLDPL,2.43e-05
10,chain 1 QDMSAWFNLFDDLDPL,0
11,chain 1 QDMSAWFNLFFDLDPL,1.35e-05
12,chain 1 QDMSAWFNLFWDLDPL,0
13,chain 1 QDASAWFNLFADLDPL,1.55e-05
14,chain 1 QDMSAWFNLFADLDPN,2.43e-05
15,chain 1 QDMSAWFNLFADLDPD,3.18e-05
16,chain 1 QDMSAWFNLFADLDPA,6.04e-05
17,chain 1 QDMSAWFNLFADLDPF,2.69e-05
18,chain 1 QDMSAWFNLFADLDPS,5.17e-05
19,chain 1 QDMSAPFNLFADLDPL,0
20,chain 1 QDMSAVFNLFADLDPL,0
21,chain 1 QDMSGWFNLFADLDPL,6.16e-05
22,chain 1 QDMSSWFNLFADLDPL,3.33e-05
23,chain 1 QDMSLWFNLFADLDPL,1.55e-05
24,chain 1 QDMSHWFNLFADLDPL,2.76e-05
25,chain 1 QDMSAWFNLRADLDPL,0
26,chain 1 QDMSAWFNLHADLDPL,0

# Variants of: B2
# Conditions: with NSP3 ADRP (ORF1ab Nsp3b ADRP, residues 1023-1192); bait immobilised on MaxiSorp plates (10 µg), library pre-cleared on GST, 2 h binding at 4 °C, five washes; one round per day, days 1-4; value from days 2 and 3; keep out of graded; scale: average fractional NGS count over selection days 2 and 3
row,Variant,screen value
1,chain 1 T2H,0.000152
2,chain 1 T2S,5.82e-05
3,chain 1 T2A,0.000138
4,chain 1 T2E,1.15e-05
5,chain 1 T2Y,0.00544
6,chain 1 T2I,2.27e-05
7,chain 1 T2W,2.61e-05
8,chain 1 T2V,0.000388
9,chain 1 T2L,0.000208
10,chain 1 T2F,0.00217
11,chain 1 T2K,0
12,chain 1 T2R,0
13,chain 1 T2Q,4.36e-05
14,chain 1 L7I,0
15,chain 1 L7M,0
16,chain 1 L7A,0
17,chain 1 Y3H,3.26e-05
18,chain 1 Y3I,0
19,chain 1 Y3T,3.8e-05
20,chain 1 Y3G,0.000695
21,chain 1 Y3L,0
22,chain 1 Y3W,0
23,chain 1 Y3F,0
24,chain 1 Y3E,2.37e-05
25,chain 1 Y3M,0.000117

row,Variant,screen value
1,chain 1 Y3S,2.54e-05
2,chain 1 Y3N,3.37e-05
3,chain 1 Y3A,0.00112
4,chain 1 Y3D,0.000184
5,chain 1 G12M,0.000127
6,chain 1 G12W,3.64e-05
7,chain 1 G12S,0.000443
8,chain 1 G12V,0
9,chain 1 G12P,5.99e-05
10,chain 1 G12H,0.000369
11,chain 1 G12Q,0.000576
12,chain 1 G12I,5.57e-05
13,chain 1 G12N,5.25e-05
14,chain 1 G12A,0.00306
15,chain 1 G12D,0
16,chain 1 I13T,3.35e-05
17,chain 1 I13A,5.81e-05
18,chain 1 I13W,0.00073
19,chain 1 I13N,3.03e-05
20,chain 1 I13L,0.00192
21,chain 1 I13K,0
22,chain 1 I13D,0
23,chain 1 I13F,0.00253
24,chain 1 I13Y,0.00165
25,chain 1 I13H,8.18e-05

row,Variant,screen value
1,chain 1 I13R,1.08e-05
2,chain 1 I13V,3.18e-05
3,chain 1 I13Q,0.00199
4,chain 1 H5N,0.0049
5,chain 1 H5Q,0
6,chain 1 H5M,0
7,chain 1 H5I,0
8,chain 1 H5L,0
9,chain 1 H5S,5.25e-05
10,chain 1 S1I,0.000426
11,chain 1 S1T,9.2e-05
12,chain 1 S1W,0.000263
13,chain 1 S1G,0.00039
14,chain 1 S1E,0.00035
15,chain 1 S1Y,0.00667
16,chain 1 S1N,0.000536
17,chain 1 S1P,0.000375
18,chain 1 S1L,0.000154
19,chain 1 S1F,0.000157
20,chain 1 S1A,0.000215
21,chain 1 S1M,9.76e-05
22,chain 1 S1V,0.000869
23,chain 1 S1D,0.000236
24,chain 1 S1H,0.000511
